Measured values from the RNAGym collection of RNA variant scans (doi:10.1093/molbev/msab373).

B1: Azoarcus group I ribozyme (parent)
chain: GUGCCUUGCGCCGGGAAACCACGCAAGGGAUGGUGUCAAAUUCGGCGAAACCUAAGCGCCCGCCCGGGCGUAUGGCAACGCCGAGCCAAGCUUCGGCGCCUGCGCCGAUGAAGGUGUAGAGACUAGACGGCACCCACCUAAGGCAAACGCUAUGGUGAAGGCAUAGUCCAGGGAGUGGCGAAAGUCACACAAACCGG

Variants of: B1
Experiment: reverse-splicing fitness (ratio to wild type); higher = more active; in vitro selection; Mg2+ level not given
Summary of the method: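 An in vitro group I ribozyme library with randomized positions was T7-transcribed and gel-purified. In triplicate, 10 pmol RNA in EPPS pH 7.5 was reacted with 50 pmoles of a 30-nt RNA substrate for 1 h at 37 °C across several added MgCl2 levels (1–48 mM), then stopped with EDTA. Products were reverse transcribed from a substrate-complementary primer, PCR-amplified and sequenced (HiSeq 4000). Fitness is a variant's read proportion after selection over that before, normalised to wild type.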

**Q.** With C82U A145C C150A C169U U176A as the variant, how does the reverse-splicing fitness read?
**A.** 0.0103

**Q.** For C82U A145C C150A C169U U176C, which reverse-splicing fitness is on record?
**A.** 0.00693

**Q.** Which reverse-splicing fitness does the source give for C82U A145C C150A C169U U176G here?
**A.** 0.00503

**Q.** Which reverse-splicing fitness does the source give for C82U A120U A145U C150A C169A U176C here?
**A.** 0.00203

**Q.** For C82U A120U A145U C150A C169A U176G, which reverse-splicing fitness is on record?
**A.** 0.00164

**Q.** With C82U A120U A145U C150A C169A U176A as the variant, how does the reverse-splicing fitness read?
**A.** 0.00221

**Q.** For C82U A145C C169U U176C, which reverse-splicing fitness is on record?
**A.** 0.00956

**Q.** For C82U A145C C169U U176G, which reverse-splicing fitness is on record?
**A.** 0.00457

**Q.** With C82U A145C C169U U176A as the variant, how does the reverse-splicing fitness read?
**A.** 0.0118

**Q.** For C82U A120U A145U C150U U176A, which reverse-splicing fitness is on record?
**A.** 0.0284

**Q.** With C82U A120U A145U C150U U176G as the variant, how does the reverse-splicing fitness read?
**A.** 0.00848

**Q.** With C82U A120U A145U C150U U176C as the variant, how does the reverse-splicing fitness read?
**A.** 0.0465

**Q.** With C82U A145G C150A C169A as the variant, how does the reverse-splicing fitness read?
**A.** 0.0109

**Q.** For C82U A145G C150A C169U, which reverse-splicing fitness is on record?
**A.** 0.0093

**Q.** With C82U A145G C150A C169G as the variant, how does the reverse-splicing fitness read?
**A.** 0.00784

**Q.** With C82U A120U A145U U176C as the variant, how does the reverse-splicing fitness read?
**A.** 0.0847

**Q.** With C82U A120U A145U U176A as the variant, how does the reverse-splicing fitness read?
**A.** 0.0411

**Q.** With C82U A120U A145U U176G as the variant, how does the reverse-splicing fitness read?
**A.** 0.013

**Q.** For C82U A120U A145U C150G C169A U176A, which reverse-splicing fitness is on record?
**A.** 0.00252

**Q.** With C82U A120U A145U C150G C169A U176C as the variant, how does the reverse-splicing fitness read?
**A.** 0.00203

**Q.** For C82U A120U A145U C150G C169A U176G, which reverse-splicing fitness is on record?
**A.** 0.0021

**Q.** For C82U A120U A145C C169G U176G, which reverse-splicing fitness is on record?
**A.** 0.00143

**Q.** Which reverse-splicing fitness does the source give for C82U A120U A145C C169G U176A here?
**A.** 0.00282

**Q.** Which reverse-splicing fitness does the source give for C82U A120U A145C C169G U176C here?
**A.** 0.00167

**Q.** Which reverse-splicing fitness does the source give for C82U A145C C150A U176G here?
**A.** 0.0119

**Q.** Which reverse-splicing fitness does the source give for C82U A145C C150A U176C here?
**A.** 0.0348

**Q.** With C82U A145C C150A U176A as the variant, how does the reverse-splicing fitness read?
**A.** 0.031

**Q.** For C82U A120U C150G C169G, which reverse-splicing fitness is on record?
**A.** 0.0055

**Q.** Which reverse-splicing fitness does the source give for C82U A120U C150G C169U here?
**A.** 0.00386

**Q.** Which reverse-splicing fitness does the source give for C82U A120U C150G C169A here?
**A.** 0.00679

**Q.** Which reverse-splicing fitness does the source give for C82U A120U C150A C169A U176G here?
**A.** 0.00199

**Q.** For C82U A120U C150A C169A U176C, which reverse-splicing fitness is on record?
**A.** 0.0026

**Q.** For C82U A120U C150A C169A U176A, which reverse-splicing fitness is on record?
**A.** 0.00373

**Q.** For C82U A120U A145C U176A, which reverse-splicing fitness is on record?
**A.** 0.0354

**Q.** For C82U A120U A145C U176C, which reverse-splicing fitness is on record?
**A.** 0.0503

**Q.** For C82U A120U A145C U176G, which reverse-splicing fitness is on record?
**A.** 0.011

**Q.** Which reverse-splicing fitness does the source give for C82U A120U A145U C150G C169U here?
**A.** 0.00244

**Q.** For C82U A120U A145U C150G C169G, which reverse-splicing fitness is on record?
**A.** 0.00248

**Q.** With C82U A120U A145U C150G C169A as the variant, how does the reverse-splicing fitness read?
**A.** 0.00259

**Q.** Which reverse-splicing fitness does the source give for C82U A120U A145G C150U C169G U176G here?
**A.** 0.0018

**Q.** With C82U A120U A145G C150U C169G U176A as the variant, how does the reverse-splicing fitness read?
**A.** 0.00433

**Q.** With C82U A120U A145G C150U C169G U176C as the variant, how does the reverse-splicing fitness read?
**A.** 0.00361

**Q.** For C82U A120U C150G U176C, which reverse-splicing fitness is on record?
**A.** 0.00788

**Q.** For C82U A120U C150G U176A, which reverse-splicing fitness is on record?
**A.** 0.00531

**Q.** Which reverse-splicing fitness does the source give for C82U A120U C150G U176G here?
**A.** 0.0022

**Q.** Which reverse-splicing fitness does the source give for C82U A145C C150G C169A U176G here?
**A.** 0.0049

**Q.** For C82U A145C C150G C169A U176A, which reverse-splicing fitness is on record?
**A.** 0.00717

**Q.** For C82U A145C C150G C169A U176C, which reverse-splicing fitness is on record?
**A.** 0.00546

**Q.** Which reverse-splicing fitness does the source give for C82U A120U A145G C150G C169U U176C here?
**A.** 0.00545

**Q.** With C82U A120U A145G C150G C169U U176A as the variant, how does the reverse-splicing fitness read?
**A.** 0.00708

**Q.** Which reverse-splicing fitness does the source give for C82U A120U A145G C150G C169U U176G here?
**A.** 0.00348

**Q.** Which reverse-splicing fitness does the source give for C82U A120U A145G C150G C169G U176G here?
**A.** 0.00346

**Q.** For C82U A120U A145G C150G C169G U176A, which reverse-splicing fitness is on record?
**A.** 0.00758

**Q.** For C82U A120U A145G C150G C169G U176C, which reverse-splicing fitness is on record?
**A.** 0.00499

**Q.** With C82U A120U A145U C150A U176A as the variant, how does the reverse-splicing fitness read?
**A.** 0.00666

**Q.** With C82U A120U A145U C150A U176C as the variant, how does the reverse-splicing fitness read?
**A.** 0.0101

**Q.** Which reverse-splicing fitness does the source give for C82U A120U A145U C150A U176G here?
**A.** 0.00379

**Q.** Which reverse-splicing fitness does the source give for C82U A120U A145G C150A C169A U176C here?
**A.** 0.00294

**Q.** Which reverse-splicing fitness does the source give for C82U A120U A145G C150A C169A U176A here?
**A.** 0.00482

**Q.** With C82U A120U A145G C150A C169A U176G as the variant, how does the reverse-splicing fitness read?
**A.** 0.00241

**Q.** Which reverse-splicing fitness does the source give for C82U A120U A145C C150G C169U U176A here?
**A.** 0.00247

**Q.** With C82U A120U A145C C150G C169U U176G as the variant, how does the reverse-splicing fitness read?
**A.** 0.00191

**Q.** For C82U A120U A145C C150G C169U U176C, which reverse-splicing fitness is on record?
**A.** 0.00224

**Q.** Which reverse-splicing fitness does the source give for C82U A145C C150G C169G U176C here?
**A.** 0.00649

**Q.** Which reverse-splicing fitness does the source give for C82U A145C C150G C169G U176G here?
**A.** 0.00454

**Q.** For C82U A145C C150G C169G U176A, which reverse-splicing fitness is on record?
**A.** 0.00879

**Q.** Which reverse-splicing fitness does the source give for C82U A120U A145C C150G C169A here?
**A.** 0.00211

**Q.** Which reverse-splicing fitness does the source give for C82U A120U A145C C150G C169U here?
**A.** 0.00275

**Q.** For C82U A120U A145C C150G C169G, which reverse-splicing fitness is on record?
**A.** 0.00257

**Q.** With C82U A120U C150U U176A as the variant, how does the reverse-splicing fitness read?
**A.** 0.0245

**Q.** For C82U A120U C150U U176G, which reverse-splicing fitness is on record?
**A.** 0.00728

**Q.** With C82U A120U C150U U176C as the variant, how does the reverse-splicing fitness read?
**A.** 0.0451

**Q.** Which reverse-splicing fitness does the source give for C82U A120U A145U C150A C169U here?
**A.** 0.0022

**Q.** With C82U A120U A145U C150A C169G as the variant, how does the reverse-splicing fitness read?
**A.** 0.00199

**Q.** For C82U A120U A145U C150A C169A, which reverse-splicing fitness is on record?
**A.** 0.00179

**Q.** For C82U A120U A145U C150U C169U U176C, which reverse-splicing fitness is on record?
**A.** 0.00368

**Q.** With C82U A120U A145U C150U C169U U176G as the variant, how does the reverse-splicing fitness read?
**A.** 0.00217

**Q.** For C82U A120U A145U C150U C169U U176A, which reverse-splicing fitness is on record?
**A.** 0.0028

**Q.** With C82U A120U C150U C169A U176G as the variant, how does the reverse-splicing fitness read?
**A.** 0.00208

**Q.** Which reverse-splicing fitness does the source give for C82U A120U C150U C169A U176C here?
**A.** 0.00192

**Q.** With C82U A120U C150U C169A U176A as the variant, how does the reverse-splicing fitness read?
**A.** 0.00329

**Q.** With C82U A145G C150A C169G U176A as the variant, how does the reverse-splicing fitness read?
**A.** 0.0162

**Q.** For C82U A145G C150A C169G U176C, which reverse-splicing fitness is on record?
**A.** 0.0265
